{"source": "patent US5827734", "molecular_target": "murine MBP::ob fusion protein (+Gln), construct pCZR90 (mouse)", "data": [{"substance": "Bovine Factor Xa (from UniProt P00743) (enzyme)", "values": [{"measurement": "Factor Xa cleavage of the MBP::ob fusion protein", "result": 9, "unit": "%"}]}]}
